# Experimental data taken from patent US20060251734A1.
# Tests used:
# [1] = test system: T1, mutated cdc2 peptide with Phe-15 substituted for Tyr-15 (IEKIGEGTFGVVYK)
# T1 sequence: IEKIGEGTFGVVYK
# [2] = target: cdc2 peptide (amino acids 7 to 20; …); assay: cell-based or functional assay
phosphorylation of the cdc2 peptide by anti-Lyn immune complexes from MMC-treated cells against control cells [2] [fold],Substance,phosphorylation of the mutated cdc2 peptide (Tyr-15 to Phe-15) by anti-Lyn immune complexes [1]
–,p56/p53^lyn tyrosine kinase,there was little phosphorylation of the mutated cdc2 peptide with anti-Lyn complexes from control or MMC-treated cells
2,p56/p53^lyn tyrosine kinase (from UniProt P07948 2-512) (enzyme),–
